The values that follow come from patent US20140148396A1.

A value given as a limit tells only on which side of the number the result lay.

In this experiment the target is EMMPRIN in mouse aortic endothelial cells (MAEC) (mouse) (UniProt P18572). Put plainly: cell-based or functional assay.

As to “anti-EMMPRIN antibody (rat-anti-mouse-EMMPRIN, OX114 clone)”, the reduction of MMP-9 in mice compared to the IgG control is greater than 50%.
